Values of other authors as cited in paper PMC4569521.

Key:
[1] = target: MuA tetramer (Escherichia phage Mu) (UniProt P07636)
[2] = target: MuA recognition peptides (Escherichia phage Mu) (UniProt P07636)
Sequence of MuA recognition peptides (Escherichia phage Mu) (P07636 whole entry, looked up): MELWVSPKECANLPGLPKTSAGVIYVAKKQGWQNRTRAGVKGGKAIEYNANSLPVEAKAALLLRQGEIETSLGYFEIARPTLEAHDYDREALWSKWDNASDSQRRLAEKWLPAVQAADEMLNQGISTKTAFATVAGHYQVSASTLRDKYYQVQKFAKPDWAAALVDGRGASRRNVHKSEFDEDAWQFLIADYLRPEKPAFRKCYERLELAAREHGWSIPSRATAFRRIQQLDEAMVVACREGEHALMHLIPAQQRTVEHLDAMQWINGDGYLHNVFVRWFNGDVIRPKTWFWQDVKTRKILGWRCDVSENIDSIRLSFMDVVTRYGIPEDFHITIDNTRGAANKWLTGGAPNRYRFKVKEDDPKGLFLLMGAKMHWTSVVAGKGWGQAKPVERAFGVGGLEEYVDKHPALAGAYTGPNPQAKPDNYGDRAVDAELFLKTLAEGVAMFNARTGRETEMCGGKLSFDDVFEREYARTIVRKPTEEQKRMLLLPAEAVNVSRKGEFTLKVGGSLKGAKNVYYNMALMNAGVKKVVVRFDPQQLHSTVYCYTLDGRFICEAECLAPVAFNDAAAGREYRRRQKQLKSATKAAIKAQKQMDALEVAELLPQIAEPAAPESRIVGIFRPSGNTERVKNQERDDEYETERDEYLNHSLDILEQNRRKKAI

Sequence of ClpX (P0A6H1 2-424): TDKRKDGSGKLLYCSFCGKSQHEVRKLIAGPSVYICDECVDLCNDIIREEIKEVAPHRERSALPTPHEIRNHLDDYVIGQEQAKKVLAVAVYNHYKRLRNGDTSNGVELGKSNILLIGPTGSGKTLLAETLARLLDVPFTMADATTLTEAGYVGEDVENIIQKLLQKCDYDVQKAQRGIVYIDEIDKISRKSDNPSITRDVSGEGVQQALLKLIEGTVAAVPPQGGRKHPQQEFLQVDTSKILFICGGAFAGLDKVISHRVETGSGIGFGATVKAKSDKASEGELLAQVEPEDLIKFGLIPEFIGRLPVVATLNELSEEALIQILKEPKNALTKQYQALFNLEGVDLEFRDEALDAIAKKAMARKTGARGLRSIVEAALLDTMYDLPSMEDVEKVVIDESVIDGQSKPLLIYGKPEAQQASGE
Sequence of MuA tetramer (Escherichia phage Mu) (P07636 whole entry): as the sequence (P07636 whole entry, looked up) above

ClpX (from UniProt P0A6H1)
Kd [1]: 1000 nM
Kd [2]: > 70000 nM
